Test results reported in publication PMC3579193, “Elucidation of relaxin-3 binding interactions in the extracellular loops of RXFP3” (Frontiers in Endocrinology, 2013).

B1: mono-Eu-labeled relaxin-3 agonist H3 relaxin B-chain, INSL5 A chain (H3/I5) [modified: mono-Eu label on the peptide; chain and site not stated] [not stated | human] / HA-tagged human RXFP3 (HA-RXFP3) [human] (parent complex)
chain 1: RAAPYGVRLCGREFIRAVIFTCGGSRW
chain 2: QDLQTLCCTDGCSMTDLSALC
chain 3: QMADAATIATMNKAAGGDKLAELFSLVPDLLEAANTSGNASLQLPDLWWELGLELPDGAPPGHPPGSGGAESADTEARVRILISVVYWVVCALGLAGNLLVLYLMKSMQGWRKSSINLFVTNLALTDFQFVLTLPFWAVENALDFKWPFGKAMCKIVSMVTSMNMYASVFFLTAMSVTRYHSVASALKSHRTRGHGRGDCCGRSLGDSCCFSAKALCVWIWALAALASLPSAIFSTTVKVMGEELCLVRFPDKLLGRDRQFWLGLYHSQKVLLGFVLPLGIIILCYLLLVRFIADRRAAGTKGGAAVAGGRPTGASARRLSKVTKSVTIVVLSFFLCWLPNQALTTWSILIKFNAVPFSQEYFLCQVYAFPVSVCLAHSNSCLNPVLYCLVRREFRKALKSLLWRIASPSITSMRPFTATTKPEHEDQGLQAPAPPHAAAEPDLLYYPPGVVVYSGGRYDLLPSSSAY

Variants of: B1
Assay: Eu-H3/I5 binding on cells, normalized to cell surface expression; read off a plot

percent of parent	Variant
~15 % of RXFP3 binding	chain 3 QMADAATIATMNKAAGGDKLAELFSLVPDLLEAANTSGNASLQLPDLWWELGLELPDGAPPGHPPGSGGAESADTEARVRILISVVYWVVCALGLAGNLLVLYLMKSMQGWRKSSINLFVTNLALTDFQFVLTLPFWAVENALDFKWPFGKAMCKIVSMVTSMNMYASVFFLTAMSVTRYHSVASALKSHRTRGHGRGDCCGRSLGDSCCFSAKALCVWIWALAALASLPSAIFSTTVKVMGAELCLVRFPDKLLGRDRQFWLGLYHSQKVLLGFVLPLGIIILCYLLLVRFIADRRAAGTKGGAAVAGGRPTGASARRLSKVTKSVTIVVLSFFLCWLPNQALTTWSILIKFNAVPFSQEYFLCQVYAFPVSVCLAHSNSCLNPVLYCLVRREFRKALKSLLWRIASPSITSMRPFTATTKPEHEDQGLQAPAPPHAAAEPDLLYYPPGVVVYSGGRYDLLPSSSAY [chain 3 E243A]
~5.5 % of RXFP3 binding	chain 3 QMADAATIATMNKAAGGDKLAELFSLVPDLLEAANTSGNASLQLPDLWWELGLELPDGAPPGHPPGSGGAESADTEARVRILISVVYWVVCALGLAGNLLVLYLMKSMQGWRKSSINLFVTNLALTDFQFVLTLPFWAVANALDFKWPFGKAMCKIVSMVTSMNMYASVFFLTAMSVTRYHSVASALKSHRTRGHGRGDCCGRSLGDSCCFSAKALCVWIWALAALASLPSAIFSTTVKVMGEELCLVRFPDKLLGRDRQFWLGLYHSQKVLLGFVLPLGIIILCYLLLVRFIADRRAAGTKGGAAVAGGRPTGASARRLSKVTKSVTIVVLSFFLCWLPNQALTTWSILIKFNAVPFSQEYFLCQVYAFPVSVCLAHSNSCLNPVLYCLVRREFRKALKSLLWRIASPSITSMRPFTATTKPEHEDQGLQAPAPPHAAAEPDLLYYPPGVVVYSGGRYDLLPSSSAY [chain 3 E140A]
~77 % of RXFP3 binding	chain 3 QMADAATIATMNKAAGGDKLAELFSLVPDLLEAANTSGNASLQLPDLWWELGLELPDGAPPGHPPGSGGAESADTEARVRILISVVYWVVCALGLAGNLLVLYLMKSMQGWRKSSINLFVTNLALTDFQFVLTLPFWAVENALDFKWPFGKAMCKIVSMVTSMNMYASVFFLTAMSVTRYHSVASALKSHRTRGHGRGDCCGRSLGDSCCFSAKALCVWIWALAALASLPSAIFSTTVKVMGEELCLVRFPDKLLGRDRQFWLGLYHSQKVLLGFVLPLGIIILCYLLLVRFIADRRAAGTKGGAAVAGGRPTGASARRLSKVTKSVTIVVLSFFLCWLPNQALTTWSILIKFNAVPFSQAYFLCQVYAFPVSVCLAHSNSCLNPVLYCLVRREFRKALKSLLWRIASPSITSMRPFTATTKPEHEDQGLQAPAPPHAAAEPDLLYYPPGVVVYSGGRYDLLPSSSAY [chain 3 E361A]
~130 % of RXFP3 binding	chain 3 QMADAATIATMNKAAGGDKLAELFSLVPDLLEAANTSGNASLQLPDLWWELGLALPAGAPPGHPPGSGGAESADTEARVRILISVVYWVVCALGLAGNLLVLYLMKSMQGWRKSSINLFVTNLALTDFQFVLTLPFWAVENALDFKWPFGKAMCKIVSMVTSMNMYASVFFLTAMSVTRYHSVASALKSHRTRGHGRGDCCGRSLGDSCCFSAKALCVWIWALAALASLPSAIFSTTVKVMGEELCLVRFPDKLLGRDRQFWLGLYHSQKVLLGFVLPLGIIILCYLLLVRFIADRRAAGTKGGAAVAGGRPTGASARRLSKVTKSVTIVVLSFFLCWLPNQALTTWSILIKFNAVPFSQEYFLCQVYAFPVSVCLAHSNSCLNPVLYCLVRREFRKALKSLLWRIASPSITSMRPFTATTKPEHEDQGLQAPAPPHAAAEPDLLYYPPGVVVYSGGRYDLLPSSSAY [chain 3 E54A, chain 3 D57A]
~6 % of RXFP3 binding	chain 3 QMADAATIATMNKAAGGDKLAELFSLVPDLLEAANTSGNASLQLPDLWWELGLELPDGAPPGHPPGSGGAESADTEARVRILISVVYWVVCALGLAGNLLVLYLMKSMQGWRKSSINLFVTNLALTDFQFVLTLPFWAVANALAFKWPFGKAMCKIVSMVTSMNMYASVFFLTAMSVTRYHSVASALKSHRTRGHGRGDCCGRSLGDSCCFSAKALCVWIWALAALASLPSAIFSTTVKVMGEELCLVRFPDKLLGRDRQFWLGLYHSQKVLLGFVLPLGIIILCYLLLVRFIADRRAAGTKGGAAVAGGRPTGASARRLSKVTKSVTIVVLSFFLCWLPNQALTTWSILIKFNAVPFSQEYFLCQVYAFPVSVCLAHSNSCLNPVLYCLVRREFRKALKSLLWRIASPSITSMRPFTATTKPEHEDQGLQAPAPPHAAAEPDLLYYPPGVVVYSGGRYDLLPSSSAY [chain 3 E140A, chain 3 D144A]
~110 % of RXFP3 binding	chain 3 QMADAATIATMNKAAGGDKLAELFSLVPDLLEAANTSGNASLQLPDLWWELGLELPDGAPPGHPPGSGGAASADTEARVRILISVVYWVVCALGLAGNLLVLYLMKSMQGWRKSSINLFVTNLALTDFQFVLTLPFWAVENALDFKWPFGKAMCKIVSMVTSMNMYASVFFLTAMSVTRYHSVASALKSHRTRGHGRGDCCGRSLGDSCCFSAKALCVWIWALAALASLPSAIFSTTVKVMGEELCLVRFPDKLLGRDRQFWLGLYHSQKVLLGFVLPLGIIILCYLLLVRFIADRRAAGTKGGAAVAGGRPTGASARRLSKVTKSVTIVVLSFFLCWLPNQALTTWSILIKFNAVPFSQEYFLCQVYAFPVSVCLAHSNSCLNPVLYCLVRREFRKALKSLLWRIASPSITSMRPFTATTKPEHEDQGLQAPAPPHAAAEPDLLYYPPGVVVYSGGRYDLLPSSSAY [chain 3 E71A]

Further lines, the variant ahead of its results:

Variant	percent of parent
chain 3 QMADAATIATMNKAAGGDKLAELFSLVPDLLEAANTSGNASLQLPDLWWELGLELPDGAPPGHPPGSGGAESAATEARVRILISVVYWVVCALGLAGNLLVLYLMKSMQGWRKSSINLFVTNLALTDFQFVLTLPFWAVENALDFKWPFGKAMCKIVSMVTSMNMYASVFFLTAMSVTRYHSVASALKSHRTRGHGRGDCCGRSLGDSCCFSAKALCVWIWALAALASLPSAIFSTTVKVMGEELCLVRFPDKLLGRDRQFWLGLYHSQKVLLGFVLPLGIIILCYLLLVRFIADRRAAGTKGGAAVAGGRPTGASARRLSKVTKSVTIVVLSFFLCWLPNQALTTWSILIKFNAVPFSQEYFLCQVYAFPVSVCLAHSNSCLNPVLYCLVRREFRKALKSLLWRIASPSITSMRPFTATTKPEHEDQGLQAPAPPHAAAEPDLLYYPPGVVVYSGGRYDLLPSSSAY [chain 3 D74A]	~81 % of RXFP3 binding
chain 3 QMADAATIATMNKAAGGDKLAELFSLVPDLLEAANTSGNASLQLPDLWWELGLELPDGAPPGHPPGSGGAESADTEARVRILISVVYWVVCALGLAGNLLVLYLMKSMQGWRKSSINLFVTNLALTDFQFVLTLPFWAVENALDFKWPFGKAMCKIVSMVTSMNMYASVFFLTAMSVTRYHSVASALKSHRTRGHGRGDCCGRSLGDSCCFSAKALCVWIWALAALASLPSAIFSTTVKVMGEELCLVRFPDKLLGRARQFWLGLYHSQKVLLGFVLPLGIIILCYLLLVRFIADRRAAGTKGGAAVAGGRPTGASARRLSKVTKSVTIVVLSFFLCWLPNQALTTWSILIKFNAVPFSQEYFLCQVYAFPVSVCLAHSNSCLNPVLYCLVRREFRKALKSLLWRIASPSITSMRPFTATTKPEHEDQGLQAPAPPHAAAEPDLLYYPPGVVVYSGGRYDLLPSSSAY [chain 3 D258A]	~79 % of RXFP3 binding
chain 3 QMADAATIATMNKAAGGDKLAELFSLVPDLLEAANTSGNASLQLPDLWWELGLELPDGAPPGHPPGSGGAESADTEARVRILISVVYWVVCALGLAGNLLVLYLMKSMQGWRKSSINLFVTNLALTDFQFVLTLPFWAVENALDFKWPFGKAMCKIVSMVTSMNMYASVFFLTAMSVTRYHSVASALKSHRTRGHGRGDCCGRSLGDSCCFSAKALCVWIWALAALASLPSAIFSTTVKVMGEELCLVRFPAKLLGRDRQFWLGLYHSQKVLLGFVLPLGIIILCYLLLVRFIADRRAAGTKGGAAVAGGRPTGASARRLSKVTKSVTIVVLSFFLCWLPNQALTTWSILIKFNAVPFSQEYFLCQVYAFPVSVCLAHSNSCLNPVLYCLVRREFRKALKSLLWRIASPSITSMRPFTATTKPEHEDQGLQAPAPPHAAAEPDLLYYPPGVVVYSGGRYDLLPSSSAY [chain 3 D252A]	~96 % of RXFP3 binding
chain 3 QMADAATIATMNKAAGGDKLAELFSLVPDLLEAANTSGNASLQLPALWWALGLELPDGAPPGHPPGSGGAESADTEARVRILISVVYWVVCALGLAGNLLVLYLMKSMQGWRKSSINLFVTNLALTDFQFVLTLPFWAVENALDFKWPFGKAMCKIVSMVTSMNMYASVFFLTAMSVTRYHSVASALKSHRTRGHGRGDCCGRSLGDSCCFSAKALCVWIWALAALASLPSAIFSTTVKVMGEELCLVRFPDKLLGRDRQFWLGLYHSQKVLLGFVLPLGIIILCYLLLVRFIADRRAAGTKGGAAVAGGRPTGASARRLSKVTKSVTIVVLSFFLCWLPNQALTTWSILIKFNAVPFSQEYFLCQVYAFPVSVCLAHSNSCLNPVLYCLVRREFRKALKSLLWRIASPSITSMRPFTATTKPEHEDQGLQAPAPPHAAAEPDLLYYPPGVVVYSGGRYDLLPSSSAY [chain 3 D46A, chain 3 E50A]	~99 % of RXFP3 binding
chain 3 QMADAATIATMNKAAGGDKLAELFSLVPDLLEAANTSGNASLQLPDLWWELGLELPDGAPPGHPPGSGGAESADTEARVRILISVVYWVVCALGLAGNLLVLYLMKSMQGWRKSSINLFVTNLALTDFQFVLTLPFWAVENALAFKWPFGKAMCKIVSMVTSMNMYASVFFLTAMSVTRYHSVASALKSHRTRGHGRGDCCGRSLGDSCCFSAKALCVWIWALAALASLPSAIFSTTVKVMGEELCLVRFPDKLLGRDRQFWLGLYHSQKVLLGFVLPLGIIILCYLLLVRFIADRRAAGTKGGAAVAGGRPTGASARRLSKVTKSVTIVVLSFFLCWLPNQALTTWSILIKFNAVPFSQEYFLCQVYAFPVSVCLAHSNSCLNPVLYCLVRREFRKALKSLLWRIASPSITSMRPFTATTKPEHEDQGLQAPAPPHAAAEPDLLYYPPGVVVYSGGRYDLLPSSSAY [chain 3 D144A]	~9.5 % of RXFP3 binding
